Measured values published in patent publication US20140274782A1, “AFFINITY REAGENTS AND METHODS FOR DETECTION, PURIFICATION, AND PROTEOMIC ANALYSIS OF METHYLATED PROTEINS” (The Board of Trustees of the Leland Stanford Junior …, priority 2013, published 2014).
Each block holds one molecule with its values, some of them ahead of it.

Tests used:
G9a and GLP = molecular target: T1, G9a and GLP (Homo sapiens, UniProt Q96KQ7+Q9H9B1); experiment: Triple SILAC pull-down after UNC0638 treatment of 293T cells, DMSO/UNC0638 ratio of protein captured by 3×MBT; assay type: cell-based; design: endogenous in cells; host or cells: HEK 293T; conditions: for Relative to UNC0638 UNC Heavy / Relative to UNC0638 UNC Light: SILAC ratio DMSO/UNC0638 of protein pulled down with 3xMBT; for Relative to UNC0638 UNC Heavy: UNC0638 in heavy SILAC media; for Relative to UNC0638 UNC Light: UNC0638 in light SILAC media; for Relative to UNC0638 Average: average of UNC Light and UNC Heavy experiments;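 on all read-outs here: mass spectrometry (Q-Exactive) SILAC quantitation, DMSO/UNC0638 ratio computed after subtracting 3×MBTD355N mutant pull-down background, only proteins with at least twofold 3×MBT over mutant signal considered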
T1 sequence (Q96KQ7 2-1210 limits assumed): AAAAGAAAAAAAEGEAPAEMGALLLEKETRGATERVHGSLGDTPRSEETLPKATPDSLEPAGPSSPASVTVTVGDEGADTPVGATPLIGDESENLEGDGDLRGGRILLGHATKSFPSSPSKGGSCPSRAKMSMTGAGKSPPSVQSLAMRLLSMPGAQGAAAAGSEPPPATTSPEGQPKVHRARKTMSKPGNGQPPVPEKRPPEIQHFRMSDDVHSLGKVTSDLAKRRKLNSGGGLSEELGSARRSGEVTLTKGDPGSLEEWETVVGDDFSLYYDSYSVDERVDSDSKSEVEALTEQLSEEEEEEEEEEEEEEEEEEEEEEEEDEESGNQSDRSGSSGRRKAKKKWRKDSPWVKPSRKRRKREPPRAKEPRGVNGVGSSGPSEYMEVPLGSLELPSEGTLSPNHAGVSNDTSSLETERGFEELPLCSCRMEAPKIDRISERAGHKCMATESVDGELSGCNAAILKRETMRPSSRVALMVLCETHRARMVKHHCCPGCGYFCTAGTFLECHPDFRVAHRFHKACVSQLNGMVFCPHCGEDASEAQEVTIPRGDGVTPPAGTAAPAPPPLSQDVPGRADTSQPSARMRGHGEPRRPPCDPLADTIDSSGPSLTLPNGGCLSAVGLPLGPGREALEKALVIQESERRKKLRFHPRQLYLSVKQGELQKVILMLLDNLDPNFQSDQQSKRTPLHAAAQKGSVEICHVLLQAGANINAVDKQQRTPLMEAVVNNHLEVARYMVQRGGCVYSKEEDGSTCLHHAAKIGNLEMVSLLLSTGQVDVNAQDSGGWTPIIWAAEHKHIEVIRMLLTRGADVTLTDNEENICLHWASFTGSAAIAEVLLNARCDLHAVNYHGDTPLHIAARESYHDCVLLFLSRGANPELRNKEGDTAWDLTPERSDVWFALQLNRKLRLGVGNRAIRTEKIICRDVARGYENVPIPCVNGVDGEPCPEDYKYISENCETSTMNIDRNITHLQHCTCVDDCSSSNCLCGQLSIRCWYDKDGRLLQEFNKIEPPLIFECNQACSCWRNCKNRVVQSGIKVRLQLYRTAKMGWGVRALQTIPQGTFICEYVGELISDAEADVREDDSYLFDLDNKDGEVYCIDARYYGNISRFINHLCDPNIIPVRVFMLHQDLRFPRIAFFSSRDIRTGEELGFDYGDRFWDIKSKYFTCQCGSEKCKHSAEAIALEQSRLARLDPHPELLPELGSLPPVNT
T1 sequence (Q9H9B1 2-1298 limits assumed): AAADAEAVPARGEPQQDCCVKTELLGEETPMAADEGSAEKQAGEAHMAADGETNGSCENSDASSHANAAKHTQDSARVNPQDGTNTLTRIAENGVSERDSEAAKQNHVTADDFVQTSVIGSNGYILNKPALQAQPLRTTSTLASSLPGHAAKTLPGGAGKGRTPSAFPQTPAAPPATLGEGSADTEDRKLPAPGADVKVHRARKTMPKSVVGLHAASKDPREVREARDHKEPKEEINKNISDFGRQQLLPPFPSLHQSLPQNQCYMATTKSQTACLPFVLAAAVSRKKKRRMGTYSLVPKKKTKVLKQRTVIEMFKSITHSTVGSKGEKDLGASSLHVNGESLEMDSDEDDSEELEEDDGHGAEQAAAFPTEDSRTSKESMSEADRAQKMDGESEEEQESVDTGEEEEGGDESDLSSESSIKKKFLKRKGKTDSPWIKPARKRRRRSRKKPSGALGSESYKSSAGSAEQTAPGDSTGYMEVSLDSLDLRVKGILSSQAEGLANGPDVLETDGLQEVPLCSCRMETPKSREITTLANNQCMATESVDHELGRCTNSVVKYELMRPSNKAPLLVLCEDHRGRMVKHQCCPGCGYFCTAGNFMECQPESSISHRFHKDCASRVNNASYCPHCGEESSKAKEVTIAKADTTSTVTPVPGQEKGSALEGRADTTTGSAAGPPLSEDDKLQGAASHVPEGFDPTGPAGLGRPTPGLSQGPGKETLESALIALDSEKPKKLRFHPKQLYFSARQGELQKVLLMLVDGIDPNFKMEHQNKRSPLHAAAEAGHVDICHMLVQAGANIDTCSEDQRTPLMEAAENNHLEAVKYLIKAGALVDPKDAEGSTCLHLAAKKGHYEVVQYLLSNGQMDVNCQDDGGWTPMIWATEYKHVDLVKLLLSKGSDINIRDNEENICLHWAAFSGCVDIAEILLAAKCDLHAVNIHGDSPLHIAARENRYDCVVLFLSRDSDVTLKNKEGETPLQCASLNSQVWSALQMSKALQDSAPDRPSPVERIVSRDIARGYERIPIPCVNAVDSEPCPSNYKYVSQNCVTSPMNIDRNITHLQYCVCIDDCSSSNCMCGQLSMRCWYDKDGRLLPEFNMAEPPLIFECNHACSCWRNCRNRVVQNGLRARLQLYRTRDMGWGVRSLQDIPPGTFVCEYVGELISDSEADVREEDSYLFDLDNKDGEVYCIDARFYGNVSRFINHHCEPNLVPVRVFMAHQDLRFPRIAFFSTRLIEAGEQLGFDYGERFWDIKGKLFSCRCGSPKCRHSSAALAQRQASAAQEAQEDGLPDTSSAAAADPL

3×MBT domain of L3MBTL1 = experiment: Triple SILAC pull-down, 3xMBT/3xMBTD355N ratio (cytoplasmic, nuclear and chromatin fractions of 293T cells); assay type: binding, human; conditions: SILAC ratio, pull-down 3xMBT vs 3xMBTD355N; for 3xMBT/D355N UNC Heavy: experiment with UNC0638 in heavy SILAC media; for 3xMBT/D355N UNC Light: experiment with UNC0638 in light SILAC media;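 on all read-outs here: proteins quantified with MaxQuant, requiring at least two unique peptides and quantification in both label directions, normalized to the mean of proteins from a digested loading control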

B1: GSR (protein, UniProt P00390 44-522, looked up)
Glutathione reductase, …: MACRQEPQPQGPPPAAGAVASYDYLVIGGGSGGLASARRAAELGARAAVVESHKLGGTCVNVGCVPKKVMWNTAVHSEFMHDHADYGFPSCEGKFNWRVIKEKRDAYVSRLNAIYQNNLTKSHIEIIRGHAAFTSDPKPTIEVSGKKYTAPHILIATGGMPSTPHESQIPGASLGITSDGFFQLEELPGRSVIVGAGYIAVEMAGILSALGSKTSLMIRHDKVLRSFDSMISTNCTEELENAGVEVLKFSQVKEVKKTLSGLEVSMVTAVPGRLPVMTMIPDVDCLLWAIGRVPNTKDLSLNKLGIQTDDKGHIIVDEFQNTNVKGIYAVGDVCGKALLTPVAIAAGRKLAHRLFEYKEDSKLDYNNIPTVVFSHPPIGTVGLTEDEAIHKYGIENVKTYSTSFTPMYHAVTKRKTKCVMKMVCANKEEKVVGIHMQGLGCDEMLQGFAVAVKMGATKADFDNTVAIHPTSSEELVTLR
Relative to UNC0638 UNC Heavy (G9a and GLP): 0.24 log base 2
Relative to UNC0638 UNC Light (G9a and GLP): −0.02 log base 2
Relative to UNC0638 Average (G9a and GLP): 0.11 log base 2
3xMBT/D355N UNC Heavy (3×MBT domain of L3MBTL1): 2.92 log base 2
3xMBT/D355N UNC Light (3×MBT domain of L3MBTL1): 2.32 log base 2

B2: CBR1 (protein, UniProt P16152 2-277, looked up)
Carbonyl reductase [NADPH] 1: SSGIHVALVTGGNKGIGLAIVRDLCRLFSGDVVLTARDVTRGQAAVQQLQAEGLSPRFHQLDIDDLQSIRALRDFLRKEYGGLDVLVNNAGIAFKVADPTPFHIQAEVTMKTNFFGTRDVCTELLPLIKPQGRVVNVSSIMSVRALKSCSPELQQKFRSETITEEELVGLMNKFVEDTKKGVHQKEGWPSSAYGVTKIGVTVLSRIHARKLSEQRKGDKILLNACCPGWVRTDMAGPKATKSPEEGAETPVYLALLPPDAEGPHGQFVSEKRVEQW
Relative to UNC0638 UNC Heavy (G9a and GLP): −0.09 log base 2
Relative to UNC0638 UNC Light (G9a and GLP): 1.14 log base 2
Relative to UNC0638 Average (G9a and GLP): 0.53 log base 2
3xMBT/D355N UNC Heavy (3×MBT domain of L3MBTL1): 1.12 log base 2
3xMBT/D355N UNC Light (3×MBT domain of L3MBTL1): 0.84 log base 2

B3: CSDE1 (protein, UniProt O75534 1-798, looked up)
Cold shock domain-containing …: MSFDPNLLHNNGHNGYPNGTSAALRETGVIEKLLTSYGFIQCSERQARLFFHCSQYNGNLQDLKVGDDVEFEVSSDRRTGKPIAVKLVKIKQEILPEERMNGQVVCAVPHNLESKSPAAPGQSPTGSVCYERNGEVFYLTYTPEDVEGNVQLETGDKINFVIDNNKHTGAVSARNIMLLKKKQARCQGVVCAMKEAFGFIERGDVVKEIFFHYSEFKGDLETLQPGDDVEFTIKDRNGKEVATDVRLLPQGTVIFEDISIEHFEGTVTKVIPKVPSKNQNDPLPGRIKVDFVIPKELPFGDKDTKSKVTLLEGDHVRFNISTDRRDKLERATNIEVLSNTFQFTNEAREMGVIAAMRDGFGFIKCVDRDVRMFFHFSEILDGNQLHIADEVEFTVVPDMLSAQRNHAIRIKKLPKGTVSFHSHSDHRFLGTVEKEATFSNPKTTSPNKGKEKEAEDGIIAYDDCGVKLTIAFQAKDVEGSTSPQIGDKVEFSISDKQRPGQQVATCVRLLGRNSNSKRLLGYVATLKDNFGFIETANHDKEIFFHYSEFSGDVDSLELGDMVEYSLSKGKGNKVSAEKVNKTHSVNGITEEADPTIYSGKVIRPLRSVDPTQTEYQGMIEIVEEGDMKGEVYPFGIVGMANKGDCLQKGESVKFQLCVLGQNAQTMAYNITPLRRATVECVKDQFGFINYEVGDSKKLFFHVKEVQDGIELQAGDEVEFSVILNQRTGKCSACNVWRVCEGPKAVAAPRPDRLVNRLKNITLDDASAPRLMVLRQPRGPDNSMGFGAERKIRQAGVID
Relative to UNC0638 UNC Heavy (G9a and GLP): 0.16 log base 2
Relative to UNC0638 UNC Light (G9a and GLP): 0.08 log base 2
Relative to UNC0638 Average (G9a and GLP): 0.12 log base 2
3xMBT/D355N UNC Heavy (3×MBT domain of L3MBTL1): 2.33 log base 2
3xMBT/D355N UNC Light (3×MBT domain of L3MBTL1): 2.17 log base 2

Second part, led by results:

Relative to UNC0638 UNC Heavy (G9a and GLP): −0.03 log base 2
Relative to UNC0638 UNC Light (G9a and GLP): 0.26 log base 2
Relative to UNC0638 Average (G9a and GLP): 0.12 log base 2
B4: PRPF38B (protein, UniProt Q5VTL8 2-546, looked up)
Pre-mRNA-splicing factor 38B: ANNSPALTGNSQPQHQAAAAAAQQQQQCGGGGATKPAVSGKQGNVLPLWGNEKTMNLNPMILTNILSSPYFKVQLYELKTYHEVVDEIYFKVTHVEPWEKGSRKTAGQTGMCGGVRGVGTGGIVSTAFCLLYKLFTLKLTRKQVMGLITHTDSPYIRALGFMYIRYTQPPTDLWDWFESFLDDEEDLDVKAGGGCVMTIGEMLRSFLTKLEWFSTLFPRIPVPVQKNIDQQIKTRPRKIKKDGKEGAEEIDRHVERRRSRSPRRSLSPRRSPRRSRSRSHHREGHGSSSFDRELEREKERQRLEREAKEREKERRRSRSIDRGLERRRSRSRERHRSRSRSRDRKGDRRDRDREREKENERGRRRDRDYDKERGNEREKERERSRERSKEQRSRGEVEEKKHKEDKDDRRHRDDKRDSKKEKKHSRSRSRERKHRSRSRSRNAGKRSRSRSKEKSSKHKNESKEKSNKRSRSGSQGRTDSVEKSKKREHSPSKEKSRKRSRSKERSHKRDHSDSKDQSDKHDRRRSQSIEQESQEKQHKNKDETV
3xMBT/D355N UNC Heavy (3×MBT domain of L3MBTL1): 2.44 log base 2
3xMBT/D355N UNC Light (3×MBT domain of L3MBTL1): 2.96 log base 2

Relative to UNC0638 UNC Heavy (G9a and GLP): 0.06 log base 2
Relative to UNC0638 UNC Light (G9a and GLP): 0.17 log base 2
Relative to UNC0638 Average (G9a and GLP): 0.11 log base 2
B5: RBM14 (protein, UniProt Q96PK6 1-669, looked up)
RNA-binding protein 14: MKIFVGNVDGADTTPEELAALFAPYGTVMSCAVMKQFAFVHMRENAGALRAIEALHGHELRPGRALVVEMSRPRPLNTWKIFVGNVSAACTSQELRSLFERRGRVIECDVVKDYAFVHMEKEADAKAAIAQLNGKEVKGKRINVELSTKGQKKGPGLAVQSGDKTKKPGAGDTAFPGTGGFSATFDYQQAFGNSTGGFDGQARQPTPPFFGRDRSPLRRSPPRASYVAPLTAQPATYRAQPSVSLGAAYRAQPSASLGVGYRTQPMTAQAASYRAQPSVSLGAPYRGQLASPSSQSAAASSLGPYGGAQPSASALSSYGGQAAAASSLNSYGAQGSSLASYGNQPSSYGAQAASSYGVRAAASSYNTQGAASSLGSYGAQAASYGAQSAASSLAYGAQAASYNAQPSASYNAQSAPYAAQQAASYSSQPAAYVAQPATAAAYASQPAAYAAQATTPMAGSYGAQPVVQTQLNSYGAQASMGLSGSYGAQSAAAATGSYGAAAAYGAQPSATLAAPYRTQSSASLAASYAAQQHPQAAASYRGQPGNAYDGAGQPSAAYLSMSQGAVANANSTPPPYERTRLSPPRASYDDPYKKAVAMSKRYGSDRRLAELSDYRRLSESQLSFRRSPTKSSLDYRRLPDAHSDYARYSGSYNDYLRAAQMHSGYQRRM
3xMBT/D355N UNC Heavy (3×MBT domain of L3MBTL1): 0.82 log base 2
3xMBT/D355N UNC Light (3×MBT domain of L3MBTL1): 1.89 log base 2
